In patent US20260166085A1 (BEAM THERAPEUTICS, published 2026):
Each block holds one binder with its values, some of them ahead of it.

What was measured:
[1] = biological target: T1, Wild type CD117 purified protein (human, UniProt P10721 26-520, limits assumed); experiment: summary Table 75 (repeats Table 71)
T1 construct: Protein used in BLI/kinetics and cryo-EM; also called wt CD117; Wt CD117

[2] = biological target: T2, Wild type CD117 expressed on cells (M07e cells, unedited human CD34+ HSPCs) (human, UniProt P10721 26-976); experiment: summary Table 75 (repeats Table 73)
T2 construct: Endogenous receptor on cells; also called wtCD117; WT CD117
T2 sequence (P10721 26-976 limits assumed): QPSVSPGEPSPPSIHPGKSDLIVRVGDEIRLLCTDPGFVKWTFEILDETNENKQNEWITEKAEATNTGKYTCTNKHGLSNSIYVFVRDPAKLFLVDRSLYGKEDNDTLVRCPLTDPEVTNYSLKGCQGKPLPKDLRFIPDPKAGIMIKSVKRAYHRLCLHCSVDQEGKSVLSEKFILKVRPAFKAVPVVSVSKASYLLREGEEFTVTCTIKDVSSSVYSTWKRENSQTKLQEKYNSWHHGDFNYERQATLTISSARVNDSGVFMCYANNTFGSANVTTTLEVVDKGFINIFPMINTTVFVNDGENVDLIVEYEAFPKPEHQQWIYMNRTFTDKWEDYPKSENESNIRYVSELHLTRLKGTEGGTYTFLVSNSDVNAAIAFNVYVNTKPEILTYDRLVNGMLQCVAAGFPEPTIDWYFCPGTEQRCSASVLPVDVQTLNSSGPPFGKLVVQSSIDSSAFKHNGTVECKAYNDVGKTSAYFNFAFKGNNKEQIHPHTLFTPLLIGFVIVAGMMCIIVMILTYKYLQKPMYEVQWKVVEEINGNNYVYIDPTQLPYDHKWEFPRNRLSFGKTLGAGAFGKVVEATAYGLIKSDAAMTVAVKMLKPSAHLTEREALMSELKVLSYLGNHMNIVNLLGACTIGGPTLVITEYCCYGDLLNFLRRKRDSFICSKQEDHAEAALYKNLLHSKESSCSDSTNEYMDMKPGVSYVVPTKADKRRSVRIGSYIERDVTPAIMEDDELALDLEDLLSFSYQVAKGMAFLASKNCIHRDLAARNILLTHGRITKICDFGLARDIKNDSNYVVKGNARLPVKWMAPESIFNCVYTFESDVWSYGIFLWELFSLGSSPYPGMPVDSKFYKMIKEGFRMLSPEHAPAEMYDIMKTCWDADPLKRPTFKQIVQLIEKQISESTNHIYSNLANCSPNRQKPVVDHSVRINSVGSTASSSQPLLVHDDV

[3] = biological target: T1, Wild type CD117 purified protein; experiment: monovalent KD, CD117 titrated (FIGS. 73A-73E)
[4] = biological target: T2, Wild type CD117 expressed on cells …; experiment: cell-based or functional assay
[5] = biological target: T2, Wild type CD117 expressed on cells …; experiment: flow cytometry on M07e cells, AF647 secondary (FIG. 76A)
Cyno CD117 = biological target: T3, Cyno CD117 (cynomolgus, UniProt F6V858 26-520 (rhesus entry)); experiment: KD, method not stated (Table 8B)
T3 construct: also called cynomolgus CD117
T3 sequence (chain, as listed by the source): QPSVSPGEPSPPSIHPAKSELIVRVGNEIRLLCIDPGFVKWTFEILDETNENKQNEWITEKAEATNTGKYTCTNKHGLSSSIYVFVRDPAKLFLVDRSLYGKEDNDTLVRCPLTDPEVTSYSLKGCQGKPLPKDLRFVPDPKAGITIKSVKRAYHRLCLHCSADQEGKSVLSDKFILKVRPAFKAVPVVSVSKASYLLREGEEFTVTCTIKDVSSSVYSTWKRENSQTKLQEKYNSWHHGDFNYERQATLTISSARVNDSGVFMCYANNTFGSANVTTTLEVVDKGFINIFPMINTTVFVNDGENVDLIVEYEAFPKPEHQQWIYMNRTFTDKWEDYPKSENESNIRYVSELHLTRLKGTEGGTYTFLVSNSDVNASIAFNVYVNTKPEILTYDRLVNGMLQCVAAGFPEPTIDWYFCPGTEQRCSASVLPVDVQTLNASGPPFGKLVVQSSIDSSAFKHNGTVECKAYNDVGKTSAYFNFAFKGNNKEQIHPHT

[6] = biological target: T1, Wild type CD117 purified protein; experiment: KD, method not stated (Table 8B)
[7] = biological target: T4, CC89 variant of CD117 (T144A) on M07e cells (human, UniProt P10721 26-976); experiment: binding to edited M07e cells (Table 8B)
T4 construct: also called CC89-M07e
T4 sequence (P10721 26-976 T144A limits assumed): as the sequence (P10721 26-976 limits assumed) above, with T119A counted along it

[8] = biological target: T1, Wild type CD117 purified protein; experiment: binding kinetics grade, FIGS. 55A-55C
[9] = biological target: T1, Wild type CD117 purified protein; experiment: binding kinetics, antibody 333.3 to 5.2 nM (FIGS. 58A-58D)
[10] = biological target: T2, Wild type CD117 expressed on cells …; experiment: flow cytometry (MFI) on M07e cells (FIG. 59)
[11] = biological target: T2, Wild type CD117 expressed on cells …; experiment: cell-based or functional assay; remark: listed apart in the source
[12] = biological target: wild type CD117 extracellular domain (ECD) protein (human, UniProt P10721 26-524); experiment: BLI (Octet), antibody on AHC biosensor, CD117 ECD titrated 1:2 from 345 nM
Sequence of wild type CD117 extracellular domain (ECD) protein (P10721 26-524 limits assumed): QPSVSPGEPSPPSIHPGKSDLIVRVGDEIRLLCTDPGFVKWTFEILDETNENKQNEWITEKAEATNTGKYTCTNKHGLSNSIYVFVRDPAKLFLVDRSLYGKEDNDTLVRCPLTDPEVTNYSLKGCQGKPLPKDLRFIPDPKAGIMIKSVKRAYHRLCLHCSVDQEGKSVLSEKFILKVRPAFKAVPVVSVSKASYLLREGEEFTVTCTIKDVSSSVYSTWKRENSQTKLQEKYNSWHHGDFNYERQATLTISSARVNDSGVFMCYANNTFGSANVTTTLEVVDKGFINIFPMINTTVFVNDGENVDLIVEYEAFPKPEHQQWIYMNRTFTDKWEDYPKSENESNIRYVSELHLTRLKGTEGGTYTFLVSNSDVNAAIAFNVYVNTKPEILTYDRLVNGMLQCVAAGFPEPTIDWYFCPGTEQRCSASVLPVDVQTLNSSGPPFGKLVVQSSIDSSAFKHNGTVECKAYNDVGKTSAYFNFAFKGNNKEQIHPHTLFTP
Experimental: The AHC biosensor data was analyzed using Octet Analysis Studio software.

[13] = biological target: T5, CC128 variant of CD117 (Y259C + N260D) purified protein (human, UniProt P10721 26-520, limits assumed); experiment: BLI (Octet), CC128 variant on SA biosensor, antibody titrated 1:2 from 2.5 µM
T5 construct: also called CC128-edited CD117 as purified protein
T5 sequence (P10721 26-520 Y259C/N260D limits assumed): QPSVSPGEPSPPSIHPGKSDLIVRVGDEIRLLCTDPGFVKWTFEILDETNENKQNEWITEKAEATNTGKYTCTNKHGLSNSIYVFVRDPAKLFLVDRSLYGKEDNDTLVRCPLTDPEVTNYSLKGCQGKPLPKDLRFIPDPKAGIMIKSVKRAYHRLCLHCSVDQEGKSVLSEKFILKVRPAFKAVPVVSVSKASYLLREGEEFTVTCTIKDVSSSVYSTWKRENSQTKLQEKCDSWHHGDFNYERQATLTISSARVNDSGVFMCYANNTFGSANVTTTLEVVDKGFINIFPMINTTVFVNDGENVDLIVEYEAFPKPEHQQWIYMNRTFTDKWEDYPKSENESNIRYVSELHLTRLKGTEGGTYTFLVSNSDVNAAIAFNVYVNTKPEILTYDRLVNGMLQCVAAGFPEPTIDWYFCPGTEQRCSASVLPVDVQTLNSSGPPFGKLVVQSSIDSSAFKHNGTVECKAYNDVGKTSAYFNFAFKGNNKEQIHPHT
Experimental: Binding to the CC128 variant of CD117 was determined using streptavidin (SA) biosensors, which were allowed to bind the CC128 variant from a 5 μg/ml solution thereof. The SA biosensors were then titrated with monoclonal antibodies starting at 2.5 μM and using titration increments of 1:2. Data was analyzed using the Octet Analysis Studio Software.

[14] = biological target: T2, Wild type CD117 expressed on cells …; experiment: flow cytometry on M07e cells expressing wild type CD117, 1 h (FIG. 87A)

T1 sequence (P10721 26-520 limits assumed): as the sequence (P10721 26-520 Y259C/N260D limits assumed) above, with C234Y, D235N counted along it

binding result [8]: no binding
B4: ABTx252 (antibody, human IgG1, kappa, V domains shown)
VH: QVQLVQSGAAVKKPGESLKISCKGSGYRFTSYWIGWVRQMPGKGLEWMGIIYPGDSDTRYSPSFQGQVTISAGKSISTAYLQWSSLKASDTAMYYCARHGRGYDGYEGAFDIWGQGTMVTVSS
VL: AIQLTQSPSSLSASVGDRVTITCRASQGISSALAWYQQKPGKAPKLLIYDASSLESGVPSRFSGSGSGTDFTLTISSLQPEDFATYYCQQFNSHPLTFGGGTKVEIKR

Kd [12]: 8.48 nM
koff [12]: 0.0166 s⁻¹
kon [12]: 1.95e+06 M⁻¹ s⁻¹
Kd [13]: 7.49 nM
EC50 [14]: 0.398 nM
B6: ABTx308 (antibody, human IgG1, kappa, L234A L235A, V domains shown)
VH: QVQLVQSGAAVKKPGESLKISCKGSGYRFTSYWIGWVRQMPGKGLEWMGIIYPGDSDTKYSPSFQGQVTISAGKSISTAYLQWSSLKASDTAMYYCARHGRGYDAYDGAFDIWGQGTMVTVSS
VL: AIQLTQSPSSLSASVGDRVTITCRASQGISSALAWYQQKPGKAPKLLIYDASSLESGVPSRFSGSGSGTDFTLTISSLQPEDFATYYCQQFSSYPLTFGGGTKVEIKR
notes: Fc with LALADA

More lines, now with the values behind:

B1: ABTx198 (antibody, human IgG1, V domains shown)
VH: EVQLVESGGGLVQPGRSLRLSCAASGFTFDDYAMHWVRQAPGKGLEWVSGISWNSGTIGYADSVKGRFTNSRDNAKNSLYLEMNSLRAEDTALYYCAKDSPPGYCASASCYGAFDIWGQGTMVTVSS
VL: DVVMTQSPGTLSLSPGERATLSCRASQSVSSSYLAWYQQKPGQAPRLLIYGASSRATGIPDRFSGSGSGTDFTLTISRLEPEDFAVYYCQQDSLGLTFGGGTKLEIK
Kd [1]: 1.2 nM
EC50 [2]: 5.42 nM
Kd [3]: 1.2 nM
koff [3]: 8.74e-05 s⁻¹
kon [3]: 72800 M⁻¹ s⁻¹
IC50 (M), depletion of human CD34+ HSPCs [4]: 3.59e-06 M
EC50 [5]: 5.42 nM

B2: ABTx070 (antibody, human IgG1, kappa, V domains shown)
VH: EVQLVESGGGVVRPGGSLRLSCAASGFTFDDYGMSWVRQAPGKGLEWVSDINWNGGSTGYADSVKGRFTISRDNAKNSLYLQMNSLRAEDTALYYCARESWDGSGIYYMDVWGKGTTVTVSS
VL: DIVMTQSPSFLSASVGDRVTITCRASQGISSYLNWYQQKPGKAPKLLIYAASTLQNGVPSRFSGSGSGTDFTLTISSLQPEDFATYYCQQSYSTPITFGQGTRLEIKR
Kd (Cyno CD117): 0.486 nM
Kd [6]: 6.5 nM
binding result [7]: no binding

B3: ABTx071 (antibody, human IgG1, kappa, V domains shown)
VH: EVQLVESGGGVVRPGGSLRLSCAASGFTFDDYGMSWVRQAPGKGLEWVSGINWNGGSTGYADSVKGRFTISRDNAKNSLHLQMNSLRAEDTALYYCARESWNYEGYYYMDVWGKGTTVTVSS
VL: AIQMTQSPSFLSASVGDRVTITCRASQGISSYLAWYQQKPGKAPKLLIYAASTLQNGVPSRFSGSGSGTEFTLTISSLQPEDFATYYCQQLNSYPYTFGQGTKLEIKR
Kd (Cyno CD117): 4.28 nM
Kd [6]: 0.523 nM
binding result [7]: no binding

B5: ABTx253 (antibody, human IgG1, kappa, V domains shown)
VH: QVQLVQSGAAVKKPGESLKISCKGSGYRFTSYWIGWVRQMPGKGLEWMGIIYPGDSDTRYSPSFQGQVTISAGKSISTAYLQWSSLKASDTAMYYCARHGRGYDGYEGAFDIWGQGTMVTVSS
VL: AIQLTQSPSSLSASVGDRVTITCRASQGISSALAWYQQKPGKAPKLLIYDASSLESGVPSRFSGSGSGTDFTLTISSLQPEDFATYYCQQFSSYPLTFGGGTKVEIKR
Kd [9]: 13.1 nM
koff [9]: 0.00408 s⁻¹
kon [9]: 312000 M⁻¹ s⁻¹
EC50 [10]: 0.0529 nM
IC50 [M], viability of unedited HSCs with 100 ng/mL SCF, 5-7 days [11]: 2.21e-06 M
